# B1: protein C inhibitor: plasma APC inhibitor belonging to the serpin family (protein, UniProt P05154 26-406, looked up)
# Plasma serine protease …: EMKKRVEDLHVGATVAPSSRRDFTFDLYRALASAAPSQSIFFSPVSISMSLAMLSLGAGSSTKMQILEGLGLNLQKSSEKELHRGFQQLLQELNQPRDGFQLSLGNALFTDLVVDLQDTFVSAMKTLYLADTFPTNFRDSAGAMKQINDYVAKQTKGKIVDLLKNLDSNAVVIMVNYIFFKAKWETSFNHKGTQEQDFYVTSETVVRVPMMSREDQYHYLLDRNLSCRVVGVPYQGNATALFILPSEGKMQQVENGLSEKTLRKWLKMFKKRQLELYLPKFSIEGSYQLEKVLPSLGISNVFTSHADLSGISNHSNIQVSEMVHKAVVEVDESGTRAAAATGTIFTFRSARLNSQRLVFNRPFLMFIVDNNILFLGKVNRP
# Experiments:
# [1] = system: plasmin; assay: Euglobulin clot lysis assay; type: biochemical
# [2] = target: T1, APC (Homo sapiens, UniProt P04070); assay: APC inhibition by recombinant DrKIn-I wild type and mutants (S-2366 chromogenic substrate); type: biochemical; details: APC 20 nM, S-2366 0.4 mM
# From the text: A: amino acid alignment of the C-terminal regions of the wild-type DrKIn-I peptide and three mutants, which were generated by either deleting or mutating (alanine substitution; denoted by bold letters) one or both of the C-terminus heparin binding motifs. Underlined amino acids are the putative heparin binding motifs. B: SDS-PAGE analysis of the wild-type and mutant DrKIn-I peptides. Wild-type: SEQ ID NO:3. Mutant 1: SEQ ID NO:4. Mutant 2: SEQ ID NO:5. Mutant 3: SEQ ID NO:6. C-D: Inhibitory effect of DrKIn-I wild type (●), mutant 1 (▴), mutant 2 (▾) and mutant 3 (▪) on APC (20 nM) in the presence (C) or absence (D) of heparan sulfate (10 μg/ml). Activity of APC without the addition of inhibitors was considered as 100%.
# The wild-type DrKIn-I and the mutants at various concentrations were mixed with APC (20 nM) in the presence of heparin or heparan sulfate (10 μg/ml). After 3 minutes of incubation, a chromogenic substrate S-2366 (0.4 mM) was added and the rate of p-nitroaniline release was monitored at 405 nm for 10 minutes at 37° C. […] On the other hand, Mutants 1 and 2 inhibit APC in the presence of heparin.
# Target sequence in this assay (P04070 212-450 limits assumed): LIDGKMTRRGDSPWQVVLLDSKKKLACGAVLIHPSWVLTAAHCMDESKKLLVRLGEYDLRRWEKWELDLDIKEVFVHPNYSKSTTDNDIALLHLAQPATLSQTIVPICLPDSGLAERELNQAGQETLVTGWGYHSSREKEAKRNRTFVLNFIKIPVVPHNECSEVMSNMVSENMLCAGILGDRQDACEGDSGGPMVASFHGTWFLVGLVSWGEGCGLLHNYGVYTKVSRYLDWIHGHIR
# Target sequence in this assay (P04070 43-197 limits assumed): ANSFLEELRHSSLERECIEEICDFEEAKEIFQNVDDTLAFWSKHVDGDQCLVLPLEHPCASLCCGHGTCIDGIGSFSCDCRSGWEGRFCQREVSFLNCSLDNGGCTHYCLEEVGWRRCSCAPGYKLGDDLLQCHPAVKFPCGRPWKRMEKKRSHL
# [3] = target: T2, human activated protein C (Homo sapiens, UniProt P04070); assay: Inhibition of APC amidolytic activity (Spectrozyme PCa chromogenic substrate); type: biochemical
# T2 construct: purchased Haematologic Technologies
# Method: B: Dose-response curves of APC (10 nM) inhibition by DrKIn-I in the absence (◯) and presence (●) of 0.1 U/ml heparin. C: To determine the minimum concentration of heparin required for the potentiation APC inhibition, the activity of APC (20 nM) was measured after the addition of DrKIn-I (20 nM) and varying concentrations of heparin (0-1000 mU/ml). D: To assess the ability of heparan sulfate and the minimum length of heparan sulfate required to potentiate DrKIn-I-mediated APC inhibition, the amidolytic activity of APC was determined in the presence of DrKIn-I (20 nM) and different lengths of heparan sulfate chains (10 μg/ml each). E, Time course of FVa inactivation by APC (1 nM) was assessed in the absence (●) or presence (▪) of 5 nM DrKIn-I, or in the presence of 5 nM DrKIn-I supplemented with 0.1 U/ml heparin (▴), as described in “Materials and methods”. F, The effect of DrKIn-I (0-250 nM) and/or heparin (0.1 U/ml) on APC-mediated FVa inactivation was determined after 10 minutes of incubation at 37° C. with APC (5 nM). Results shown are means±SD of three experiments.
# All inhibition assays were performed in 96-wells microtiter plates in 25 mM Tris-HCl (pH 7.4), 150 mM NaCl, 2.5 mM CaCl2 and 5 mg/ml BSA. For comparison between DrKIn-I and DrKIn-II, the amidolytic activity of 10 nM APC, with or without 0.1 U/ml heparin, was assayed in the presence or absence of equal molar concentrations of DrKIn-I or DrKIn-II. Immediately after the addition of APC, Spectrozyme PCa was added and the rates of p-nitroaniline release were monitored at 405 nm for 10 minutes at 37° C. For dose response curves, APC was mixed with different concentrations of DrKIn-I in the presence or absence of heparin. The final concentrations were as follows: APC (10 nM), heparin (0.1 U/ml) and DrKIn-I (0-100 nM in the presence of heparin and 0-12800 nM in the absence of heparin). Dose-response curves were fitted using GraphPad Prism (GraphPad Software). In other inhibition experiments, varying concentrations of heparin ([…]) or different lengths of heparan sulfate chains (10 μg/ml) were added to equimolar concentrations of APC and DrKIn-I (20 nM each). In all the inhibition experiments, Spectrozyme PCa was added to a final concentration of 0.2 mM. Changes in absorbance were measured using SpectraMax M2^e Microplate Reader (Molecular Devices).
# [4] = Heparin binding assay (HiTrap Heparin column, NaCl gradient); details: data not shown
# Method: A: 70 μg of DrKIn-I in 0.1 ml equilibrating buffer (20 mM Tris-HCl, pH 8.0) was applied to a 5 ml HiTrap Heparin column and eluted with a 50 ml gradient from 0.0-1.0 M NaCl. The salt concentration corresponding to the elution peak was determined to be 0.95 M. B, Binding of DrKIn-I (0.78, 1.56, 2.34, 3.13, 4.68 and 6.25 nM) to immobilized APC was assessed in buffer containing 10 mM HEPES, 0.15 M NaCl, 3 mM EDTA and 0.05% P20 at a flow rate of 60 μl/min at 25° C. […] The thin lines represent the global fit to the response data. […] Results shown are means±SD of three experiments. Representative binding traces are shown.
# [5] = target: T1, APC; details: in the absence of heparin; cited from earlier work
# Target sequence in this assay (P04070 212-461 limits assumed): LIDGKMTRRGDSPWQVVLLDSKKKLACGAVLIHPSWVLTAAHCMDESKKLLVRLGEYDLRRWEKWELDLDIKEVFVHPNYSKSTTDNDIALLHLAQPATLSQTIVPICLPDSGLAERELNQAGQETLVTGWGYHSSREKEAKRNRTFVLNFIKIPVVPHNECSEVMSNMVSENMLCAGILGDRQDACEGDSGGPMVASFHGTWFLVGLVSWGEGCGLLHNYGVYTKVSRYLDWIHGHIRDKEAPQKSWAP
# Target sequence in this assay (P04070 43-197 limits assumed): as the sequence (P04070 43-197 limits assumed) above
# T2 sequence (P04070 212-450 limits assumed): as the sequence (P04070 212-450 limits assumed) above
# T2 sequence (P04070 43-197 limits assumed): as the sequence (P04070 43-197 limits assumed) above
molecule,measurement,setting,value
aprotinin [reference compound],prolongation of euglobulin clot lysis time,[1]; 20 nM inhibitor,~9 h
same,prolongation of euglobulin clot lysis time,[1]; 100 nM inhibitor,more than 16 hours
Mutant 2: Recombinant DrKIn-I deletion mutant Δ60-66 lacking one of the two heparin binding sites (CGGNDNNFETRKKCRQTCGA),APC inhibition in the presence of heparin,[2],inhibit APC
heparin [reference compound],effect of heparin alone on APC activity,"[3]; heparin alone 0.1 U/ml, regardless of the type of substrate (Spectrozyme PCa or FVa)",did not alter the activity of APC
Mutant 1: Recombinant DrKIn-I mutant R50A/K51A/K52A lacking one of the two heparin binding sites (CGGNDNNFETAAACRQTCGAPRKGRPT),APC inhibition in the presence of heparin,[2],inhibit APC
DrKIn-II (HDRPTFCNLAPESGRCRAHLRRIYYNLESNKCEVFFYGGCGGNDNNFSTWDECRHTCVGK),affinity towards heparin column,[4],no affinity towards heparin column
same,inhibitory activity against APC in the absence of heparin,"[3]; 10 nM inhibitor, 10 nM APC, no heparin",little inhibitory activity against APC
same,decrease of APC activity (inhibition of APC amidolytic activity),"[3]; equimolar inhibitor and APC (10 nM each), 0.1 U/ml heparin, Spectrozyme PCa 0.2 mM",~20%
same,inhibitory activity against APC,[3]; summary statement in discussion,no inhibitory activity against APC
B1,second order rate constant of APC inhibition,[5],2500 M⁻¹ s⁻¹

# — patent US9206246B2, “Heparin/heparan sulfate-dependent inhibitors of activated protein C and uses thereof in treating hemophilic disorders” (Academia Sinica, priority 2012, dated 2015)
